Reference: US10577406B2, “FKBP-L polypeptides and uses in angiogenesis-mediated disorders” (ALMAC DISCOVERY LIMITED, priority 2006, dated 2020)
Read-outs that look alike come from different tables or passages of the source.

B1: full length recombinant FKBP-L: recombinant full length his-tagged FKBP-L protein (SEQ ID NO: 1) expressed in BL21 (DE3) (protein, listed as Homo sapiens)
chain: MRGSHHHHHHGMASMTGGQQMGRDLYDDDDKDRWGSMETPPVNTIGEKDTSQPQQEWEKNLRENLDSVIQIRQQPRDPPTETLELEVSPDPASQILEHTQGAEKLVAELEGDSHKSHGSTSQMPEALQASDLWYCPDGSFVKKIVIRGHGLDKPKLGSCCRVLALGFPFGSGPPEGWTELTMGVGPWREETWGELIEKCLESMCQGEEAELQLPGHTGPPVGLTLASFTQGRDSWELETSEKEALAREERARGTELFRAGNPEGAARCYGRALRLLLTLPPPGPPERTVLHANLAACQLLLGQPQLAAQSCDRVLEREPGHLKALYRRGVAQAALGNLEKATADLKKVLAIDPKNRAAQEELGKVVIQGKNQDAGLAQGLRKMFG
modifications: His tag

What was measured:
HMEC-1 [1] = assay type: cell-based, Human
Protocol: (§1) The in vitro tubule formation assay used in these studies is a modified version of the method described by Ashton et al (1999). In brief, assays were conducted using BD BioCoat™ Matrigel™ Matrix Thin Layer 24-well Multiwell Plates (BD Discovery Labware, Oxford, UK). The Matrigel™ was rehydrated with 500 μl MCDB-131 serum free medium and incubated at 37° C. for 30 minutes. Excess medium was removed and HMEC-1 were seeded at a density of 1×10^5 and the plates incubated at 37° C. under 5% CO2/95% air for 1 hour.
(§2) Increasing concentrations of the recombinant FKBP-L protein (SEQ ID NO: 1) were added to each individual well in triplicate (250-1000 ngml^−1) and the plate was incubated for a further 18 hours. The degree of tubule formation between adjacent HMEC-1 cells was assessed in each well in five fields of view, by counting the number of cell to cell contacts between different HMEC-1 cells in the designated area. An independent investigator assessed each well and the FKBP-L treated wells were compared to sham treated controls.
as §1, with “al.” for “al”, “min.” for “minutes.”, “h. Increasing concentrations of FKBP-L 24mer (SEQ ID NO: 10) and 1-57mer (SEQ ID NO: 6) from 10^−14-10^−6 M were used.” for “hour.”
as §2, with “The” for “Increasing concentrations of the recombinant FKBP-L protein (SEQ ID NO: 1) were added to each individual well in triplicate (250-1000 ngml^−1) and the”, “h.” for “hours.”

rat aortic ring = assay type: cell-based, Male Wistar rats
Protocol: Male Wistar rats were euthanised and the thoracic aorta was aseptically removed and sectioned into 1 cm thick rings. The rings were washed ten times in sterile medium to remove any bacteria and embedded into Matrigel on 24 well plates. The wells were supplemented with 2 ml of medium and increasing concentrations of full-length His-tagged recombinant FKBP-L protein (SEQ ID 1). The plate was incubated for 8 days and post incubation the Matrigel and rings were fixed in 4% PBS buffered paraformaldehyde and stored in PBS. The extent of vessel development was blindly assessed microscopically by an independent investigator and quantified using a calibrated eyepiece graticule (1 mm/100 μm graduation) at 20× magnification (Olympus BX 50). The extent of vessel length, maximum vessel length and number of vessels in each field of view was measured and compared to time matched sham controls and the percent (%) inhibition calculated. Male Wistar rats were euthanised and the thoracic aorta was aseptically removed and sectioned into 1 cm thick rings. The rings were washed ten times in sterile medium to remove any bacteria and embedded into Matrigel on 24 well plates. The wells were supplemented with 2 ml of medium and increasing concentrations of FKBP-L 24mer (SEQ ID NO: 10) and FKBP-L 1-57mer (SEQ ID NO: 6) and recombinant FKBP-L (SEQ ID NO:1). The plate was blindly assessed by an independent investigator and quantified using a calibrated eyepiece graticule (1 mm/100 μm graduation) at 20× magnification (Olympus BX 50). The extent of vessel length, maximum vessel length and number of vessels in each field of view was measured and compared to time matched sham controls and the % inhibition calculated. In order to determine whether the FKBP-L 24mer exerted a permanent or static effect on endothelial cell sprouting the rat aortic ring assay was used. Male Wistar rats were euthanised and the thoracic aorta was aseptically removed and sectioned into 1 cm thick rings. The rings were washed ten times in sterile medium to remove any bacteria and embedded into Matrigel on 24 well plates. The wells were supplemented with 2 ml of medium. The plates were incubated for up to 15 days. Each day the Matrigel rings were photographed and returned to their incubator. Two further experiments were carried out: (A) addition of FKBP-L 24mer to the medium after the vessels had grown for seven days; and (B) addition of FKBP-L 24mer to the medium at the initial embedding stage, with subsequent removal after seven days and replacement with fresh medium for a further seven days. The extent of vessel development was quantified using a calibrated eyepiece graticule (1 mm/100 μm graduation) at 20× magnification (Olympus BX 50), and measured electronically using Lucia imaging software. Vessel length was measured and compared to time matched sham controls and the percent (%) inhibition calculated.

HMEC-1 [2] = test: cell adhesion assay on Matrigel (MTT readout); assay type: cell-based, Human; conditions: 1 h at 37° C.
Protocol: A 96-well plate was pre-coated with a thin layer of Matrigel which was allowed to set overnight. The plate wells were blocked with 0.5% BSA for 1 h at 37° C. in a 95% air/5% CO2 incubator. Human microvascular endothelial cells (HMEC-1) were trypsinised and re-suspended in fresh medium and seeded at a density of 20000 cells per well. The plates were placed at 4° C. for 10 min to allow the cells to sediment to the bottom of the wells. The required amount of medium supplemented with the FKBP-L 24mer was added to each well and the plate incubated for 1 h at 37° C. The excess medium and unattached cells were removed and the wells washed three times with sterile PBS. The wells were supplemented with fresh medium and MTT added (5 mgml^−1). The plate was incubated for a further 4 h at 37° C. DMSO was added to each well to solubilise the MTT to formazen and the plate read at 540nm, with the relative absorbance of control wells compared to FBKP-L 24mer-supplemented wells.

[3] = test system: DU145 (prostate tumor cell line; CD44 −ve); test: tumor cell migration, wound closure assay, DU145; assay type: cell-based, human; conditions: 24 h
Protocol: The in vitro migration assay used in these studies is a modified version of the method described by Ashton et al. (1999) see supra. PC3 (prostate tumor cell line; CD44 positive; CD44 +ve), MDA231 (breast tumor cell line; CD44 +ve), HT29 (Colorectal tumor cell line; CD44 +ve), MCF-7 (breast tumor cell line; CD44 negative; CD44 −ve) and DU145 (prostate tumor cell line; CD44 −ve) were plated into individual chambers on a glass slide and grown to 90% confluence overnight. The medium was removed and the monolayers wounded. […] The monolayers were incubated for 24 h and then fixed in 4% PBS buffered paraformaldehyde.
The extent of “wound” closure was blindly assessed microscopically by an independent investigator and quantified using a calibrated eyepiece graticule (1 mm/100 μm graduation) at 20× magnification (Olympus BX 50). The extent of closure in the FKBP-L treated slides was compared to time matched sham treated controls and the % inhibition of wound closure compared to time matched controls calculated.

Molecule | EC50 (HMEC-1 [1]; 18 h) [nM] | IC50 (rat aortic ring) [nM] | vessel development after addition at day seven (rat aortic ring; 10^−9 M added after vessels had developed for seven days, vs time matched controls) | vessel development, exposure from initial embedding (rat aortic ring; medium supplemented from embedding, seven days) | vessel development after removal of the peptide (rat aortic ring; supplemented medium removed after seven days, fresh medium added) | effect on cell adhesion (HMEC-1 [2]) | optimum concentration for inhibition of cell to cell contacts or tubules (HMEC-1 [1]; 250-1000 ngml^−1, 18 hours) [ngml^−1] | efficacy (inhibition of cell to cell contacts) at optimum concentration (HMEC-1 [1]; 750 ngml^−1, 18 hours) [%] | EC50 potency, tube formation (HMEC-1 [1]; 18 hours) [ngml^−1] | effect on tumor cell migration [3] | inhibition of number of vessels formed (rat aortic ring; 500 ngml^−1 (optimal), 8 days) [%] | inhibition of maximum vessel length compared to time matched controls (rat aortic ring; 1000 ngml^−1, 8 days) [%] | inhibition of mean vessel length compared to time matched controls (rat aortic ring; 1000 ngml^−1, 8 days) [%] | IC50 (rat aortic ring; read-out: IC50, number of vessels) [nM]
H-QIRQQPRDPPTETLELEVSPDPAS-OH [FKBP-L 24mer] | 0.03 | 0.0002 | complete inhibition of vessel development | almost completely inhibited vessel development | continued growth of vessels | potent inhibitor of HMEC-1 adhesion | – | – | – | – | – | – | – | –
B1 | – | – | – | – | – | – | 750 | 80 | 314 | not in CD44 −ve tumor cell lines | 65 | 70 | 63 | 1.56
